# Measured values reported in patent US20040038882A1, “Sgk2 and sgk3 used as diagnostic and therapeutic targets” (priority 2000, published 2004).
# Columns and labels:
# [1] = test system: human embryonic kidney cells (HEK-cells); experiment: Survival of HEK-cells after extraction of fetal calf serum; assay type: cell-based; conditions: FCS extracted, FIG. 3
# Protocol: According to FIG. 3, extracting fetal calf serum (FCS) from human embryonic kidney cells (HEK-cells) (Lewis, et al (1984); Phillips, et al (1982)) reduces the total number of cells present due to cell mortality, as may be seen by comparing the black bars to the dotted bars, where FIG. 3 depicts the situations after 24 hours and 48 hours, respectively. This reduction is lessened by the insulin-like growth factor (IGF1), represented by the white bars. The effect of IGF1 is eliminated by the simultaneous inhibition of K^+-channels using margatoxin (MT), represented by the hatched bars. […] The activation of the Kv1.3-channel mediated by sgk2 and sgk3 thus has an antiapoptotic effect, and lack of an sgk2-effect and sgk3-effect would thus cause an increase in cell mortality, as occurs in the case of, for example, neurodegeneration. Conversely, activators of sgk2 and sgk3 may be employed for preventing apoptotic cell death in the case of neurodegeneration. Since Kv1.3 also plays a major role in regulating lymphocyte proliferation and lymphocyte function, inhibitors or activators of these kinases may be employed for affecting the immune system in the case of, e.g., autoimmune diseases or immune deficiency.
# [2] = test system: epithelial Na^+-channel, α-ENaC, β-ENaC, and γ-ENaC (rENaC); experiment: Dual-electrode voltage clip, amiloride-sensitive Na+-current in oocytes expressing ENaC; assay type: cell-based, Xenopus laevis; conditions: for activation of the Na^+-channel rENaC by hsgk2 and hsgk3: kinase inhibitor; for activation of the Na^+-channel rENaC by hsgk2 and hsgk3 / amiloride-inhibitable current, Iamil, through the Na^+-channel, rENaC: FIG. 1; for Na^+-current (INa): oocytes injected with α-ENaC, β-ENaC, and γ-ENaC plus kinase, mean ± SEM, n=7; for amiloride-inhibitable current, Iamil, through the Na^+-channel, rENaC: coexpression with kinase
# Protocol: (§1) Each of the oocytes involved was injected with 1 ng cRNA from α-ENaC, β-ENaC, and γ-ENaC, Kv1.3, or minK, both with and without simultaneous injection of the kinases hsgk1, hsgk2, and hsgk3. Dual-electrode voltage-clip and current-clip experiments could be undertaken 2 to 4 days following injection. Na^+-currents (in the case of ENaC) and K^+-currents (in the case of Kv1.3 and minK) were filtered at 10 Hz and recorded using a recorder. The experiments were normally conducted on the second day following cRNA-injection. The bath solution contained 96 mM NaCl, 2 mM KCl, 1.8 mM CaCl2, 1 mM MgCl2, and 5 mM HEPES at a pH of 7.5 and a holding potential of −80 mV. In all experiments, bath pH was set by titration with HCl or NaOH. Bath-liquid flow rate was set to 20 ml/min, which provided for a complete change of solution within 10 to 15 seconds. All data were output in the form of arithmetic means±SEM.
# (§2) In order to investigate the effects of hsgk1, hsgk2, or hsgk3, the mRNA of the respective kinases, together with the mRNA of the epithelial Na^+-channel, α-ENaC, β-ENaC, and γ-ENaC, or the voltage-dependent K^+-channel, Kv1.3, or the minK-channel, were injected into Xenopus oocytes and the amiloride-sensitive Na^+-current, INa, and voltage-activated K^+-current, IK, subsequently determined.
# hsgk2 and hsgk3 = experiment: Kinase inhibitors on hsgk stimulation of channel activity in oocytes; assay type: cell-based, Xenopus laevis; conditions: protein-kinase inhibitor added; Table 1, FIGS. 1 and 2
# Protocol: as §1, §2
# [3] = test system: voltage-dependent K^+-channel, Kv1.3; experiment: Dual-electrode voltage clip, voltage-activated K+-current in oocytes expressing Kv1.3; assay type: cell-based, Xenopus laevis; conditions: oocytes injected with Kv1.3 plus kinase; mean ± SEM, n=7
# Protocol: as §1, §2
# minK-channel = experiment: Dual-electrode voltage clip, K+-current in oocytes expressing minK; assay type: cell-based, Xenopus laevis; conditions: oocytes injected with minK plus kinase; mean ± SEM, n=7
# Protocol: as §1, §2
Molecule,Na^+-current (INa) [2] [μA],"K^+-current (IK), Kv1.3 [3] [μA]","K^+-current (IK), MinK (minK-channel) [μA]",further results
"margatoxin (TIINVKCTSPKQCLPPCKAQFGQSAGAKCMNGKCKCYPH; UniProt P40755 1-39, looked up) [reference compound]",–,–,–,"effect of IGF1 on cell-number reduction ([1]; IGF1 plus simultaneous inhibition of K^+-channels, 24 and 48 hours): eliminated"
"CN[C@@H]1C[C@H]2O[C@@](C)([C@@H]1OC)n1c3ccccc3c3c4c(c5c6ccccc6n2c5c31)C(=O)NC4 [staurosporine, reference compound]",–,–,–,"activation of the Na^+-channel rENaC by hsgk2 and hsgk3 [2]: inhibit activation of the Na^+-channel; stimulating effects of hsgk on ENaC-activity, Kv1.3-activity and minK-activity (hsgk2 and hsgk3): totally prevented"
"COc1ccc2c(c[n+](C)c3c4cc5c(cc4ccc23)OCO5)c1OC [chelerythrine, reference compound]",–,–,–,"activation of the Na^+-channel rENaC by hsgk2 and hsgk3 [2]: inhibit activation of the Na^+-channel; stimulating effects of hsgk on ENaC-activity, Kv1.3-activity and minK-activity (hsgk2 and hsgk3): totally prevented"
IGF1: insulin-like growth factor,–,–,–,reduction of total number of cells due to cell mortality ([1]; after 24 hours and 48 hours): lessened
"hsgk1: human serum-and-glucocorticoid-dependent kinase 1, coexpressed in oocytes by mRNA injection (protein, UniProt O00141 1-431, looked up) Serine/threonine-protein …: MTVKTEAAKGTLTYSRMRGMVAILIAFMKQRRMGLNDFIQKIANNSYACKHPEVQSILKISQPQEPELMNANPSPPPSPSQQINLGPSSNPHAKPSDFHFLKVIGKGSFGKVLLARHKAEEVFYAVKVLQKKAILKKKEEKHIMSERNVLLKNVKHPFLVGLHFSFQTADKLYFVLDYINGGELFYHLQRERCFLEPRARFYAAEIASALGYLHSLNIVYRDLKPENILLDSQGHIVLTDFGLCKENIEHNSTTSTFCGTPEYLAPEVLHKQPYDRTVDWWCLGAVLYEMLYGLPPFYSRNTAEMYDNILNKPLQLKPNITNSARHLLEGLLQKDRTKRLGAKDDFMEIKSHVFFSLINWDDLINKKITPPFNPNVSGPNDLRHFDPEFTEEPVPNSIGKSPDSVLVTASVKEAAEAFLGFSYAPPTDSFL",5.9 ± 1.0,8.4 ± 1.8,1.16 ± 0.11,–
"hsgk2: human serum-and-glucocorticoid-dependent kinase 2, coexpressed in oocytes by mRNA injection (protein, UniProt Q9HBY8 1-367, looked up) Serine/threonine-protein …: MNSSPAGTPSPQPSRANGNINLGPSANPNAQPTDFDFLKVIGKGNYGKVLLAKRKSDGAFYAVKVLQKKSILKKKEQSHIMAERSVLLKNVRHPFLVGLRYSFQTPEKLYFVLDYVNGGELFFHLQRERRFLEPRARFYAAEVASAIGYLHSLNIIYRDLKPENILLDCQGHVVLTDFGLCKEGVEPEDTTSTFCGTPEYLAPEVLRKEPYDRAVDWWCLGAVLYEMLHGLPPFYSQDVSQMYENILHQPLQIPGGRTVAACDLLQSLLHKDQRQRLGSKADFLEIKNHVFFSPINWDDLYHKRLTPPFNPNVTGPADLKHFDPEFTQEAVSKSIGCTPDTVASSSGASSAFLGFSYAPEDDDILDC",9.4 ± 1.7,6.5 ± 0.6,0.97 ± 0.1,"amiloride-inhibitable current, Iamil, through the Na^+-channel, rENaC [2]: increased significantly"
"hsgk3: human serum-and-glucocorticoid-dependent kinase 3, coexpressed in oocytes by mRNA injection (protein, UniProt Q96BR1 1-496, looked up) Serine/threonine-protein …: MQRDHTMDYKESCPSVSIPSSDEHREKKKRFTVYKVLVSVGRSEWFVFRRYAEFDKLYNTLKKQFPAMALKIPAKRIFGDNFDPDFIKQRRAGLNEFIQNLVRYPELYNHPDVRAFLQMDSPKHQSDPSEDEDERSSQKLHSTSQNINLGPSGNPHAKPTDFDFLKVIGKGSFGKVLLAKRKLDGKFYAVKVLQKKIVLNRKEQKHIMAERNVLLKNVKHPFLVGLHYSFQTTEKLYFVLDFVNGGELFFHLQRERSFPEHRARFYAAEIASALGYLHSIKIVYRDLKPENILLDSVGHVVLTDFGLCKEGIAISDTTTTFCGTPEYLAPEVIRKQPYDNTVDWWCLGAVLYEMLYGLPPFYCRDVAEMYDNILHKPLSLRPGVSLTAWSILEELLEKDRQNRLGAKEDFLEIQNHPFFESLSWADLVQKKIPPPFNPNVAGPDDIRNFDTAFTEETVPYSVCVSSDYSIVNASVLEADDAFVGFSYAPPSEDLFL",4.5 ± 0.8,8.2 ± 0.7,1.1 ± 0.11,"amiloride-inhibitable current, Iamil, through the Na^+-channel, rENaC [2]: increased significantly"
